21 sequences from the Immune Epitope Database (IEDB) can be followed below.

For one test, the target named is HLA-B*27:05. The experiment in a line: IEDB peptide-MHC binding, purified MHC/direct/fluorescence; filed as Kd, often an IC50 or EC50 that approximates it; ≥ and ≤ were set here for values at or beyond the usual limits of such assays.
The target in the next test is HLA-A*01:01. The test is described as above.
Another test addresses HLA-A*24:03. The test is described as above.
Test [1] addresses HLA-A*02:01. Described as above.
In a further test the target is HLA-A*26:01. The test is described as above.
For another test, the target named is HLA-B*08:01. The description is as above.
Test [2] has as its target HLA-A*69:01. Described as above.
The target in the next test is HLA-A*11:01. The description is as above.
Test [3] deals with HLA-B*07:02. The description is as above.
In a further test the target is HLA-B*40:01. Described as above.
Test [4] addresses HLA-B*15:01. Described as above.
The target in a further test is HLA-B*58:01. The test is described as above.
The next test deals with HLA-B*44:02. The description is as above.
Another test has as its target HLA-A*03:01. The test is described as above.
For the next test, the target named is HLA-A*31:01. The description is as above.
For test [5], the target named is HLA-B*18:01. Described as above. To be noted: source organism: Orthohantavirus hantanense.
The next test deals with HLA-B*35:01. Briefly: IEDB peptide-MHC binding, purified MHC/competitive/radioactivity; filed as Kd, often an IC50 or EC50 that approximates it; ≥ and ≤ were set here for values at or beyond the usual limits of such assays.
The next test has as its target HLA-A*68:01. The test is described as above.
Test [6] has as its target HLA-B*51:01. Described as above.
Test [7] has as its target HLA-B*07:02. The description is as above.
The next test concerns the target HLA-A*33:01. The test is described as above. To be noted: source organism: Dengue virus 2 Jamaica/1409/1983.
The target of the next test is HLA-B*53:01. Described as above.
The target in another test is HLA-B*27:03. The experiment in a line: IEDB peptide-MHC binding, purified MHC/competitive/fluorescence; filed as Kd, often an IC50 or EC50 that approximates it; ≥ and ≤ were set here for values at or beyond the usual limits of such assays.
Test [8] has as its target HLA-A*02:01. The description is as above. Conditions: source organism: Homo sapiens.
Test [9] has as its target HLA-B*18:01. Described as above.
For test [10], the target named is HLA-B*51:01. Described as above. To be noted: source organism: Zaire ebolavirus.
Another test deals with HLA-B*57:01. The test is described as above. Conditions: source organism: Zaire ebolavirus.
The target in a further test is HLA-B*39:01. The test is described as above. To be noted: source organism: Zaire ebolavirus.
Another test has as its target HLA-B*46:01. Described as above. To be noted: source organism: Zaire ebolavirus.
The target in test [11] is HLA-A*69:01. Described as above. Conditions: source organism: Zaire ebolavirus.
For test [12], the target named is HLA-B*15:01. The description is as above. Conditions: source organism: Zaire ebolavirus.
The target of a further test is HLA-B*15:17. The description is as above. To be noted: source organism: Zaire ebolavirus.
Another test has as its target HLA-A*02:12. The experiment in a line: IEDB peptide-MHC binding, purified MHC/direct/fluorescence; filed as Kd, often an IC50 or EC50 that approximates it; ≥ and ≤ were set here for values at or beyond the usual limits of such assays. To be noted: source organism: Mycobacterium tuberculosis str. Haarlem.
Where [13] appears, read: source organism: Coxiella burnetii.
Where [14] appears, read: source organism: Salmonella enterica subsp. enterica serovar Typhi.
Setting [15] is: source organism: Orthohantavirus hantanense.
The mark [16] stands for this setting: source organism: Dengue virus 3 Sri Lanka/1266/2000.
Setting [17] is: source organism: Vibrio parahaemolyticus.
Where [18] appears, read: source organism: Dengue virus 2 Jamaica/1409/1983.
[19] abbreviates: source organism: Dengue virus 4 Philippines/H241/1956.
Setting [20] is: source organism: Giardia lamblia ATCC 50803.
[21] abbreviates: source organism: Dengue virus 3 Martinique/1243/1999.
The mark [22] stands for this setting: source organism: Zaire ebolavirus.
Setting [23] is: source organism: Dengue virus 1 Brazil/97-11/1997.

In general, Kd refers to the constant that tells how readily two partners part at equilibrium. With YYYNFSEDL, the Kd is at least 20 µM with HLA-B*27:05 (setting [13]); at least 20 µM in the test with HLA-A*01:01 (setting [13]); 0.00105 µM in the test with HLA-A*24:03 (setting [13]); at least 20 µM in the test with HLA-A*02:01 [1] (setting [13]); at least 20 µM with HLA-A*26:01 (setting [13]); at least 20 µM with HLA-B*08:01 (setting [13]). The Kd in the test with HLA-A*69:01 [2] (setting [13]), with HLA-A*11:01 (setting [13]), in the test with HLA-B*07:02 [3] (setting [13]), with HLA-B*40:01 (setting [13]), in the test with HLA-B*15:01 [4] (setting [13]) and in the test with HLA-B*58:01 (setting [13]) was at least 20 µM each time. For the same sequence, the Kd with HLA-B*44:02 (setting [13]) and with HLA-A*03:01 (setting [13]) was at least 20 µM throughout.

For REILFHNTM, the Kd in the test with HLA-B*27:05 (setting [14]) is at least 20 µM; in the test with HLA-A*01:01 (setting [14]) it was at least 20 µM; in the test with HLA-A*02:01 [1] (setting [14]), at least 20 µM; with HLA-A*26:01 (setting [14]) it was at least 20 µM; with HLA-B*08:01 (setting [14]) it was 1.31 µM; with HLA-A*31:01 (setting [14]), at least 20 µM. The Kd was at least 20 µM in the test with HLA-A*69:01 [2] (setting [14]); at least 20 µM with HLA-A*11:01 (setting [14]); at least 20 µM in the test with HLA-B*07:02 [3] (setting [14]); 0.00566 µM in the test with HLA-B*40:01 (setting [14]); 0.18 µM in the test with HLA-B*15:01 [4] (setting [14]); at least 20 µM with HLA-B*58:01 (setting [14]). Besides, the Kd in the test with HLA-B*44:02 (setting [14]) and with HLA-A*03:01 (setting [14]) was at least 20 µM throughout.

As to RELGLDISL, the Kd came out at 0.0027 µM in the test with HLA-B*18:01 [5], 0.0012 µM with HLA-B*40:01 (setting [15]) and 3.28 µM with HLA-B*44:02 (setting [15]).

On to FTNMEAQLVR, for which the Kd in the test with HLA-B*35:01 (setting [16]) is 11.8 µM; with HLA-A*68:01 (setting [16]) it was 0.0792 µM.

With EIPGSPGSY, the Kd in the test with HLA-B*27:05 (setting [17]) was at least 20 µM; with HLA-A*01:01 (setting [17]), at least 20 µM; with HLA-A*02:01 [1] (setting [17]), at least 20 µM; in the test with HLA-A*26:01 (setting [17]), 0.105 µM; with HLA-B*08:01 (setting [17]) it was at least 20 µM; in the test with HLA-A*31:01 (setting [17]), at least 20 µM. Also, the Kd with HLA-A*69:01 [2] (setting [17]), in the test with HLA-A*11:01 (setting [17]), with HLA-B*07:02 [3] (setting [17]), in the test with HLA-B*40:01 (setting [17]), in the test with HLA-B*15:01 [4] (setting [17]) and with HLA-B*58:01 (setting [17]) was at least 20 µM in each case. Moreover, the Kd with HLA-B*44:02 (setting [17]) and with HLA-A*03:01 (setting [17]) was at least 20 µM in each case.

As to TPRGTVMDII, the Kd was determined as 2.42 µM with HLA-B*51:01 [6] (setting [18]) and 0.0062 µM with HLA-B*07:02 [7] (setting [18]).

FTNMEAQLIR: the Kd in the test with HLA-A*33:01 came out at 0.108 µM; in the test with HLA-B*35:01 (setting [18]), 9.88 µM; with HLA-A*68:01 (setting [18]), 0.0193 µM.

Consider RPTPKGTVMD, for which, in the test with HLA-B*07:02 [7] (source organism: Dengue virus 3 Singapore/8120/1995), the Kd is 0.061 µM.

As for TPFAEYTNSV, the Kd in the test with HLA-B*51:01 [6] (setting [19]) came to 0.813 µM; with HLA-B*07:02 [7] (setting [19]), 0.0729 µM.

As to IHKPRPPAT, the Kd with HLA-B*27:05 (setting [20]), with HLA-A*01:01 (setting [20]), with HLA-A*02:01 [1] (setting [20]), in the test with HLA-A*26:01 (setting [20]), in the test with HLA-B*08:01 (setting [20]) and with HLA-A*31:01 (setting [20]) was at least 20 µM in each case. For the same sequence, the Kd with HLA-A*69:01 [2] (setting [20]), with HLA-A*11:01 (setting [20]), with HLA-B*07:02 [3] (setting [20]), in the test with HLA-B*40:01 (setting [20]), in the test with HLA-B*15:01 [4] (setting [20]) and with HLA-B*58:01 (setting [20]) was at least 20 µM throughout. The Kd in the test with HLA-B*44:02 (setting [20]) and with HLA-A*03:01 (setting [20]) was at least 20 µM throughout.

As to LPAALAFHL, the figures for the Kd with HLA-B*51:01 [6] (setting [16]), with HLA-B*07:02 [7] (setting [16]) and with HLA-B*53:01 (setting [16]) were 0.828 µM, 0.0724 µM and 0.0107 µM, respectively.

With VPMSTYGWNI, the values for the Kd with HLA-B*51:01 [6] (setting [21]), with HLA-B*07:02 [7] (setting [21]) and in the test with HLA-B*53:01 (setting [21]) were 0.0917 µM, 0.0605 µM and 0.0445 µM, respectively.

Regarding GVRQFSGWM, the Kd is 0.0221 µM in the test with HLA-B*07:02 [3] (source organism: Homo sapiens), at least 20 µM with HLA-B*27:03 (source organism: Homo sapiens), at least 20 µM with HLA-A*02:01 [8] and at least 20 µM with HLA-B*18:01 [9] (source organism: Homo sapiens).

Regarding RPGYHTQTA, the Kd in the test with HLA-B*07:02 [7] (setting [18]) amounted to 0.00961 µM.

In the case of KLINTLFHA, the Kd with HLA-A*24:03 (setting [22]) was at least 20 µM; with HLA-A*02:01 [1] (source organism: Sudan ebolavirus - Maleo (1979)) it was 0.0047 µM; in the test with HLA-A*03:01 (setting [22]), at least 20 µM; with HLA-B*51:01 [10], at least 20 µM; with HLA-B*57:01 it was at least 20 µM; with HLA-B*39:01, at least 20 µM. The Kd in the test with HLA-B*27:03 (setting [22]), in the test with HLA-B*18:01 [9] (setting [22]), with HLA-B*46:01, with HLA-A*69:01 [11], in the test with HLA-B*15:01 [12] and with HLA-B*15:17 was at least 20 µM throughout.

In the case of WLSQTTLSV, the Kd with HLA-A*02:12 came to 0.003 µM.

For QPQWIAASII, the Kd with HLA-B*51:01 [6] (setting [19]) stood at 0.719 µM; with HLA-B*07:02 [7] (setting [19]) it was 0.291 µM.

For the sequence LALMATFKM, the Kd in the test with HLA-B*35:01 (setting [23]) was 0.11 µM.

Turning to NPWMEDKTPV, the dissociation constant Kd with HLA-B*07:02 [7] (setting [18]) was 0.0557 µM.

Regarding WHYDDENPY, in the test with HLA-B*35:01 (setting [21]), the Kd amounted to 2.62 µM.

As to SPKRLSAAIG, in the test with HLA-B*07:02 [7] (setting [23]), the Kd was 0.125 µM.
